Values quoted from earlier work in paper PMC4963854, “Mapping Protein–Protein Interactions of the Resistance-Related Bacterial Zeta Toxin–Epsilon Antitoxin Complex (ε2ζ2) with High Affinity Peptide Ligands Using Fluorescence Polarization” (Toxins, 2016).

Target: Zeta toxin (Streptococcus pyogenes) (UniProt Q54944)
Sequence (Q54944 2-287): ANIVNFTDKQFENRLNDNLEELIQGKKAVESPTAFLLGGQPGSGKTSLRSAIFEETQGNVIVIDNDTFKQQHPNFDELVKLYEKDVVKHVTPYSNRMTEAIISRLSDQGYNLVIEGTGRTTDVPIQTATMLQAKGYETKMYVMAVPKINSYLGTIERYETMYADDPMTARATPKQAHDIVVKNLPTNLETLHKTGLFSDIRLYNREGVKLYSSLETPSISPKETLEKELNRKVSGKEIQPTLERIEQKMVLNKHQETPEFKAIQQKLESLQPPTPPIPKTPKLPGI

Chain of Epsilon antitoxin (Q57231 2-90): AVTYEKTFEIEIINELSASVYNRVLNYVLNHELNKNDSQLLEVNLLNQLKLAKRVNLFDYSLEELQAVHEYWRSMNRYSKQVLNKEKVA

Epsilon antitoxin (from UniProt Q57231)
Kd: 1000 nM
